According to US20200270325A1 (Merck Sharp & Dohme, published 2020):
Numbered stars: 1 amine (or outer) side, 2 acyl side, 3 side chain; on linkers, the order of the positions; unused ones are H or OH. Square brackets hold non-standard residues; d marks the D form. Side chains are listed from the residue outwards. Ends that are not written are not given here. * marks the point of attachment. Phe(4-CH2NH2) = NCc1ccc(C[C@H](N)C(=O)O)cc1; C18 diacid = O=C(O)CCCCCCCCCCCCCCCCC(=O)*; αMeW = C[C@](N)(Cc1c[nH]c2ccccc12)C(=O)O; γGlu = O=C(O)[C@H](CCC(=O)[*:2])N[*:1]; Met(O2) = CS(=O)(=O)CC[C@H](N)C(=O)O; αMeD = C[C@](N)(CC(=O)O)C(=O)O; αMeS = C[C@](N)(CO)C(=O)O; AEEA = NCCOCCOCC(=O)O; Aib = CC(C)(N)C(=O)O

Experiments:
[1] = target: human Glucagon receptor (GCGR) (human, UniProt P47871 26-477); test: cell-based or functional assay
Chain of human Glucagon receptor (GCGR) (P47871 26-477): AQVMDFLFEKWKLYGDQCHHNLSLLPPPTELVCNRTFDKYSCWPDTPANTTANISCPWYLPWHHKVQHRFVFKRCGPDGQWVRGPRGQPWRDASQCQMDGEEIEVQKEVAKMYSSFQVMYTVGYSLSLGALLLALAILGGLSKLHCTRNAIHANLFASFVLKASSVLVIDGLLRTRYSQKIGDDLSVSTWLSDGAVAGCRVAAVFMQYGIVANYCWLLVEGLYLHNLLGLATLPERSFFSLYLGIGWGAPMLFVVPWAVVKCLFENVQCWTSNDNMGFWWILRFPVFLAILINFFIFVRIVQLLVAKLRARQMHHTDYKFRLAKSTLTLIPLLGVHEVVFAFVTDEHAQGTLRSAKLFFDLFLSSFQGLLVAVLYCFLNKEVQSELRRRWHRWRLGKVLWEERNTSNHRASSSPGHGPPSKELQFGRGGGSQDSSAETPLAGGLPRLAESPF

[2] = target: human GLP-1 receptor (GLP1R) (human, UniProt P43220 24-463); test: cell-based or functional assay

Binder	GCGR EC50 human [1] [nM]	GLP1R EC50 human [2] [nM]
H[Aib]QGTFTSDYSKYLDARAAQDFVK([AEEA-γGlu-C18 diacid])WL[Met(O2)]DT-NH2 (N-terminus assumed; SMILES CC(C)C[C@H](NC(=O)[C@H](Cc1ccc(O)cc1)NC(=O)[C@H](CCCCN)NC(=O)[C@H](CO)NC(=O)[C@H](Cc1ccc(O)cc1)NC(=O)[C@H](CC(=O)O)NC(=O)[C@H](CO)NC(=O)[C@@H](NC(=O)[C@H](Cc1ccccc1)NC(=O)[C@@H](NC(=O)CNC(=O)[C@H](CCC(N)=O)NC(=O)C(C)(C)NC(=O)[C@@H](N)Cc1c[nH]cn1)[C@@H](C)O)[C@@H](C)O)C(=O)N[C@@H](CC(=O)O)C(=O)N[C@@H](C)C(=O)N[C@@H](CCCNC(=N)N)C(=O)N[C@@H](C)C(=O)N[C@@H](C)C(=O)N[C@@H](CCC(N)=O)C(=O)N[C@@H](CC(=O)O)C(=O)N[C@@H](Cc1ccccc1)C(=O)N[C@H](C(=O)N[C@@H](CCCCNC(=O)COCCOCCNC(=O)CC[C@H](NC(=O)CCCCCCCCCCCCCCCCC(=O)O)C(=O)O)C(=O)N[C@@H](Cc1c[nH]c2ccccc12)C(=O)N[C@@H](CC(C)C)C(=O)N[C@@H](CCS(C)(=O)=O)C(=O)N[C@@H](CC(=O)O)C(=O)N[C@H](C(N)=O)[C@@H](C)O)C(C)C) [TP637]	0.94	0.53
H[Aib]QGTFTSDYSKYLDARAAQ[Phe(4-CH2NH2)]([AEEA-AEEA-γGlu-C18 diacid])FVQWL[Met(O2)][αMeD]T-NH2 (N-terminus assumed; SMILES CC(C)C[C@H](NC(=O)[C@H](Cc1ccc(O)cc1)NC(=O)[C@H](CCCCN)NC(=O)[C@H](CO)NC(=O)[C@H](Cc1ccc(O)cc1)NC(=O)[C@H](CC(=O)O)NC(=O)[C@H](CO)NC(=O)[C@@H](NC(=O)[C@H](Cc1ccccc1)NC(=O)[C@@H](NC(=O)CNC(=O)[C@H](CCC(N)=O)NC(=O)C(C)(C)NC(=O)[C@@H](N)Cc1c[nH]cn1)[C@@H](C)O)[C@@H](C)O)C(=O)N[C@@H](CC(=O)O)C(=O)N[C@@H](C)C(=O)N[C@@H](CCCNC(=N)N)C(=O)N[C@@H](C)C(=O)N[C@@H](C)C(=O)N[C@@H](CCC(N)=O)C(=O)N[C@@H](Cc1ccc(CNC(=O)COCCOCCNC(=O)COCCOCCNC(=O)CC[C@H](NC(=O)CCCCCCCCCCCCCCCCC(=O)O)C(=O)O)cc1)C(=O)N[C@@H](Cc1ccccc1)C(=O)N[C@H](C(=O)N[C@@H](CCC(N)=O)C(=O)N[C@@H](Cc1c[nH]c2ccccc12)C(=O)N[C@@H](CC(C)C)C(=O)N[C@@H](CCS(C)(=O)=O)C(=O)N[C@@](C)(CC(=O)O)C(=O)N[C@H](C(N)=O)[C@@H](C)O)C(C)C) [TP634]	0.77	0.49
H[Aib]QGTFTSDYSKYLDARAAK([AEEA-AEEA-γGlu-C18 diacid])DFVQ[αMeW]L[Met(O2)]DT-NH2 (N-terminus assumed; SMILES CC(C)C[C@H](NC(=O)[C@H](Cc1ccc(O)cc1)NC(=O)[C@H](CCCCN)NC(=O)[C@H](CO)NC(=O)[C@H](Cc1ccc(O)cc1)NC(=O)[C@H](CC(=O)O)NC(=O)[C@H](CO)NC(=O)[C@@H](NC(=O)[C@H](Cc1ccccc1)NC(=O)[C@@H](NC(=O)CNC(=O)[C@H](CCC(N)=O)NC(=O)C(C)(C)NC(=O)[C@@H](N)Cc1c[nH]cn1)[C@@H](C)O)[C@@H](C)O)C(=O)N[C@@H](CC(=O)O)C(=O)N[C@@H](C)C(=O)N[C@@H](CCCNC(=N)N)C(=O)N[C@@H](C)C(=O)N[C@@H](C)C(=O)N[C@@H](CCCCNC(=O)COCCOCCNC(=O)COCCOCCNC(=O)CC[C@H](NC(=O)CCCCCCCCCCCCCCCCC(=O)O)C(=O)O)C(=O)N[C@@H](CC(=O)O)C(=O)N[C@@H](Cc1ccccc1)C(=O)N[C@H](C(=O)N[C@@H](CCC(N)=O)C(=O)N[C@@](C)(Cc1c[nH]c2ccccc12)C(=O)N[C@@H](CC(C)C)C(=O)N[C@@H](CCS(C)(=O)=O)C(=O)N[C@@H](CC(=O)O)C(=O)N[C@H](C(N)=O)[C@@H](C)O)C(C)C) [TP631]	1.65	1.32
H[αMeS]QGTFTSDYSKYLD[Aib]RAAK([AEEA-AEEA-γGlu-C20‑OH])DFVQWL[Met(O2)]DT-NH2 [TP592]	–	2.42
H[Aib]QGTFTSDYSKYLDARAAKDFVQ[αMeW]L[Met(O2)][αMeD]T-NH2 (not fully specified (residue 20); printed as HUQGTFTSDYSKYLDARAAK(PEG2PEG2γEC18-OH)DFVQαMWL2αMDT-NH2) [TP632]	5.9	6.6
H[Aib]QGTFTSD[Phe(4-CH2NH2)]([AEEA-AEEA-γGlu-C20‑OH])SKYLDARAAQDFVQWL[Met(O2)]DT-NH2 [TP580]	1.09	0.46
H[Aib]QGTFTSDYSKYLDARAA[Phe(4-CH2NH2)]([AEEA-γGlu-C18 diacid])DFVQWLLDT-NH2 (N-terminus assumed; SMILES CC(C)C[C@H](NC(=O)[C@H](Cc1ccc(O)cc1)NC(=O)[C@H](CCCCN)NC(=O)[C@H](CO)NC(=O)[C@H](Cc1ccc(O)cc1)NC(=O)[C@H](CC(=O)O)NC(=O)[C@H](CO)NC(=O)[C@@H](NC(=O)[C@H](Cc1ccccc1)NC(=O)[C@@H](NC(=O)CNC(=O)[C@H](CCC(N)=O)NC(=O)C(C)(C)NC(=O)[C@@H](N)Cc1c[nH]cn1)[C@@H](C)O)[C@@H](C)O)C(=O)N[C@@H](CC(=O)O)C(=O)N[C@@H](C)C(=O)N[C@@H](CCCNC(=N)N)C(=O)N[C@@H](C)C(=O)N[C@@H](C)C(=O)N[C@@H](Cc1ccc(CNC(=O)COCCOCCNC(=O)CC[C@H](NC(=O)CCCCCCCCCCCCCCCCC(=O)O)C(=O)O)cc1)C(=O)N[C@@H](CC(=O)O)C(=O)N[C@@H](Cc1ccccc1)C(=O)N[C@H](C(=O)N[C@@H](CCC(N)=O)C(=O)N[C@@H](Cc1c[nH]c2ccccc12)C(=O)N[C@@H](CC(C)C)C(=O)N[C@@H](CC(C)C)C(=O)N[C@@H](CC(=O)O)C(=O)N[C@H](C(N)=O)[C@@H](C)O)C(C)C) [TP635]	0.46	2.13
H[Aib]QGTFTSDYSKYLDARAAK([AEEA-AEEA-γGlu-C20‑OH])DFVQWL[Met(O2)][αMeD]T-NH2 [TP565]	5.42	2.26
H[αMeS]QGTFTSDYSKYLD[Aib]RAAK([AEEA-AEEA-γGlu-C20‑OH])DFVQWL[Met(O2)]DT-NH2 [TP593]	–	4.95
H[Aib]QGTFTSDYSKYLDARAA[Phe(4-CH2NH2)]([AEEA-AEEA-γGlu-C18 diacid])DFVQWL[Met(O2)][αMeD]T-NH2 (N-terminus assumed; SMILES CC(C)C[C@H](NC(=O)[C@H](Cc1ccc(O)cc1)NC(=O)[C@H](CCCCN)NC(=O)[C@H](CO)NC(=O)[C@H](Cc1ccc(O)cc1)NC(=O)[C@H](CC(=O)O)NC(=O)[C@H](CO)NC(=O)[C@@H](NC(=O)[C@H](Cc1ccccc1)NC(=O)[C@@H](NC(=O)CNC(=O)[C@H](CCC(N)=O)NC(=O)C(C)(C)NC(=O)[C@@H](N)Cc1c[nH]cn1)[C@@H](C)O)[C@@H](C)O)C(=O)N[C@@H](CC(=O)O)C(=O)N[C@@H](C)C(=O)N[C@@H](CCCNC(=N)N)C(=O)N[C@@H](C)C(=O)N[C@@H](C)C(=O)N[C@@H](Cc1ccc(CNC(=O)COCCOCCNC(=O)COCCOCCNC(=O)CC[C@H](NC(=O)CCCCCCCCCCCCCCCCC(=O)O)C(=O)O)cc1)C(=O)N[C@@H](CC(=O)O)C(=O)N[C@@H](Cc1ccccc1)C(=O)N[C@H](C(=O)N[C@@H](CCC(N)=O)C(=O)N[C@@H](Cc1c[nH]c2ccccc12)C(=O)N[C@@H](CC(C)C)C(=O)N[C@@H](CCS(C)(=O)=O)C(=O)N[C@@](C)(CC(=O)O)C(=O)N[C@H](C(N)=O)[C@@H](C)O)C(C)C) [TP636]	0.11	0.52
H[dS]QGTFTSDYSKYLD[Aib]RAAK([AEEA-AEEA-γGlu-C20‑OH])DFVQWL[Met(O2)]DT-NH2 [TP578]	0.604	4.95
H[Aib]QGTFTSDYSKYLDARAAQ[Phe(4-CH2NH2)]([AEEA-γGlu-C18 diacid])FVQWLLDT-NH2 (N-terminus assumed; SMILES CC(C)C[C@H](NC(=O)[C@H](Cc1ccc(O)cc1)NC(=O)[C@H](CCCCN)NC(=O)[C@H](CO)NC(=O)[C@H](Cc1ccc(O)cc1)NC(=O)[C@H](CC(=O)O)NC(=O)[C@H](CO)NC(=O)[C@@H](NC(=O)[C@H](Cc1ccccc1)NC(=O)[C@@H](NC(=O)CNC(=O)[C@H](CCC(N)=O)NC(=O)C(C)(C)NC(=O)[C@@H](N)Cc1c[nH]cn1)[C@@H](C)O)[C@@H](C)O)C(=O)N[C@@H](CC(=O)O)C(=O)N[C@@H](C)C(=O)N[C@@H](CCCNC(=N)N)C(=O)N[C@@H](C)C(=O)N[C@@H](C)C(=O)N[C@@H](CCC(N)=O)C(=O)N[C@@H](Cc1ccc(CNC(=O)COCCOCCNC(=O)CC[C@H](NC(=O)CCCCCCCCCCCCCCCCC(=O)O)C(=O)O)cc1)C(=O)N[C@@H](Cc1ccccc1)C(=O)N[C@H](C(=O)N[C@@H](CCC(N)=O)C(=O)N[C@@H](Cc1c[nH]c2ccccc12)C(=O)N[C@@H](CC(C)C)C(=O)N[C@@H](CC(C)C)C(=O)N[C@@H](CC(=O)O)C(=O)N[C@H](C(N)=O)[C@@H](C)O)C(C)C) [TP633]	0.12	0.19
